Assay results: article PMC7015924

Tested on: His-SUMO-Piwi PAZ domain (Drosophila melanogaster)
Assay: ITC
Details: 2'-O-methyl at 3' end; ITC buffer not in material (PAZ purified in 10 mM Tris-HCl pH 8.0, 500 mM NaCl); cleavage assays 27 C, 17 h (bead/supernatant assay conditions not given) …

8-mer RNA with 3' 2'-O-methyl
Kd: 4 µM
